Experimental data taken from publication PMC9352680, “A comprehensive thermodynamic model for RNA binding by the Saccharomyces cerevisiae Pumilio protein PUF4”.

What follows are binders tested against T1, PUF4 RNA-binding domain (Saccharomyces cerevisiae, UniProt P25339 537-888) (assay: Mg; RNA-MaP; 20 mM Na-HEPES pH 7.4, 30 mM KOAc, 0.75 mM MgCl2, 0.1% Tween-20, 5% glycerol, 0.1 mg/mL BSA, 2 mM DTT; 25 C; 0.0125-409.6 nM protein). Settings: tags: N-His6-TEV cleaved; C-SNAP kept, Cy3B-labelled; label: tethered on chip by stalled RNA polymerase.
T1 sequence: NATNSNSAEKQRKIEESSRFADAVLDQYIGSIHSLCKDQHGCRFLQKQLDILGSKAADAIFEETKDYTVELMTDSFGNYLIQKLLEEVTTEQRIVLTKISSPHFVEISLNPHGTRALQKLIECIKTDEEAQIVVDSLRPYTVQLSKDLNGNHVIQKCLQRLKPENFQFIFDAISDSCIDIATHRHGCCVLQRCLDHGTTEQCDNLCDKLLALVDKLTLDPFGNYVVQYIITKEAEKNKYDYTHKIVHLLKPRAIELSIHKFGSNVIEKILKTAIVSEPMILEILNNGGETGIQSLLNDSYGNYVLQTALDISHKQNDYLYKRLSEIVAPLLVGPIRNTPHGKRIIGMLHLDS

Binder	Kd [nM]
UCUCUUUAUAUUACUAUCUCUU (ssRNA) [Ib_S1_P5E.1_K5.1_C5.1_H5.1_[G2A]_A5.1_F5.1_[T8C]_T5.1]	728
UCUCUUAGUAUUAGUAUCUCUU (ssRNA) [Ib_S1_P5E.1_K5.1_C5.1_H5.1_[T1A]_A5.1_F5.1_[T8G]_T5.1]	> 2300
Id_ii_S2_P3E.2_K3.1_C3.2_[C-2T]_[T-1G]_H3.1_A3.1_F3.1_T3.2_[A10C] (ssRNA) RNA: UUUGAUUAAUAUGAUAUCGUUCUUUCUUGUGUAUAUAUCUUCUUUCUCGAUAUCAUAUUAAUCUUU	3.49
Id_ii_S2_P3E.2_K3.1_C3.2_[C-2T]_[T-1A]_H3.1_A3.1_F3.1_T3.2_[A10C] (ssRNA) RNA: UUUGAUUAAUAUGAUAUCGUUCUUUCUUAUGUAUAUAUCUUCUUUCUCGAUAUCAUAUUAAUCUUU	6.09
Id_ii_S2_P3E.2_K3.1_C3.2_[C-2T]_[T-1A]_H3.1_A3.1_F3.1_T3.2_[T9A]_[A10C] (ssRNA) RNA: UUUGAUUAAUAUGAUAUCGUUCUUUCUUAUGUAUAUAACUUCUUUCUCGAUAUCAUAUUAAUCUUU	16.3
Id_ii_S2_P3E.2_K3.1_C3.2_[C-2T]_[T-1G]_H3.1_A3.1_F3.1_T3.2_[A10T] (ssRNA) RNA: UUUGAUUAAUAUGAUAUCGUUCUUUCUUGUGUAUAUAUUUUCUUUCUCGAUAUCAUAUUAAUCUUU	1.33
Id_ii_S2_P3E.2_K3.1_C3.2_[C-2A]_H3.1_A3.1_F3.1_T3.2_[T9C]_[A10G] (ssRNA) RNA: UUUGAUUAAUAUGAUAUCGUUCUUUCUAUUGUAUAUACGUUCUUUCUCGAUAUCAUAUUAAUCUUU	19
Id_ii_S2_P3E.2_K3.1_C3.2_[C-2T]_[T-1C]_H3.1_A3.1_F3.1_T3.2_[T9C]_[A10C] (ssRNA) RNA: UUUGAUUAAUAUGAUAUCGUUCUUUCUUCUGUAUAUACCUUCUUUCUCGAUAUCAUAUUAAUCUUU	3.42
Id_ii_S2_P3E.2_K3.1_C3.2_[C-2T]_H3.1_A3.1_F3.1_T3.2_[T9G]_[A10T] (ssRNA) RNA: UUUGAUUAAUAUGAUAUCGUUCUUUCUUUUGUAUAUAGUUUCUUUCUCGAUAUCAUAUUAAUCUUU	2.77
Id_ii_S2_P3E.2_K3.1_C3.2_[C-2A]_[T-1G]_H3.1_A3.1_F3.1_T3.2_[A10C] (ssRNA) RNA: UUUGAUUAAUAUGAUAUCGUUCUUUCUAGUGUAUAUAUCUUCUUUCUCGAUAUCAUAUUAAUCUUU	38.5
Id_ii_S2_P3E.2_K3.1_C3.2_[C-2A]_[T-1A]_H3.1_A3.1_F3.1_T3.2_[A10G] (ssRNA) RNA: UUUGAUUAAUAUGAUAUCGUUCUUUCUAAUGUAUAUAUGUUCUUUCUCGAUAUCAUAUUAAUCUUU	7.2
Id_ii_S2_P3E.2_K3.1_C3.2_[C-2A]_[T-1G]_H3.1_A3.1_F3.1_T3.2_[A10T] (ssRNA) RNA: UUUGAUUAAUAUGAUAUCGUUCUUUCUAGUGUAUAUAUUUUCUUUCUCGAUAUCAUAUUAAUCUUU	4.88
Id_ii_S2_P3E.2_K3.1_C3.2_[C-2T]_[T-1A]_H3.1_A3.1_F3.1_T3.2_[T9G]_[A10T] (ssRNA) RNA: UUUGAUUAAUAUGAUAUCGUUCUUUCUUAUGUAUAUAGUUUCUUUCUCGAUAUCAUAUUAAUCUUU	7.14
Id_ii_S2_P3E.2_K3.1_C3.2_[C-2T]_[T-1A]_H3.1_A3.1_F3.1_T3.2_[A10G] (ssRNA) RNA: UUUGAUUAAUAUGAUAUCGUUCUUUCUUAUGUAUAUAUGUUCUUUCUCGAUAUCAUAUUAAUCUUU	31.5
Id_ii_S2_P3E.2_K3.1_C3.2_[C-2T]_[T-1C]_H3.1_A3.1_F3.1_T3.2_[T9C]_[A10T] (ssRNA) RNA: UUUGAUUAAUAUGAUAUCGUUCUUUCUUCUGUAUAUACUUUCUUUCUCGAUAUCAUAUUAAUCUUU	4.12
Id_ii_S2_P3E.2_K3.1_C3.2_[C-2T]_[T-1C]_H3.1_A3.1_F3.1_T3.2_[T9C] (ssRNA) RNA: UUUGAUUAAUAUGAUAUCGUUCUUUCUUCUGUAUAUACAUUCUUUCUCGAUAUCAUAUUAAUCUUU	7.13
Id_ii_S2_P3E.2_K3.1_C3.2_[C-2T]_H3.1_A3.1_F3.1_T3.2_[T9A]_[A10C] (ssRNA) RNA: UUUGAUUAAUAUGAUAUCGUUCUUUCUUUUGUAUAUAACUUCUUUCUCGAUAUCAUAUUAAUCUUU	4.14
Id_ii_S2_P3E.2_K3.1_C3.2_[C-2A]_[T-1G]_H3.1_A3.1_F3.1_T3.2_[T9A]_[A10G] (ssRNA) RNA: UUUGAUUAAUAUGAUAUCGUUCUUUCUAGUGUAUAUAAGUUCUUUCUCGAUAUCAUAUUAAUCUUU	10.2
Id_ii_S2_P3E.2_K3.1_C3.2_[C-2A]_[T-1C]_H3.1_A3.1_F3.1_T3.2_[A10C] (ssRNA) RNA: UUUGAUUAAUAUGAUAUCGUUCUUUCUACUGUAUAUAUCUUCUUUCUCGAUAUCAUAUUAAUCUUU	1.69
Id_ii_S2_P3E.2_K3.1_C3.2_[C-2A]_[T-1C]_H3.1_A3.1_F3.1_T3.2_[T9C]_[A10G] (ssRNA) RNA: UUUGAUUAAUAUGAUAUCGUUCUUUCUACUGUAUAUACGUUCUUUCUCGAUAUCAUAUUAAUCUUU	49.4
Id_ii_S2_P3E.2_K3.1_C3.2_[C-2A]_[T-1C]_H3.1_A3.1_F3.1_T3.2_[T9A] (ssRNA) RNA: UUUGAUUAAUAUGAUAUCGUUCUUUCUACUGUAUAUAAAUUCUUUCUCGAUAUCAUAUUAAUCUUU	3.66
Id_ii_S2_P3E.2_K3.1_C3.2_[C-2T]_H3.1_A3.1_F3.1_T3.2_[T9A]_[A10T] (ssRNA) RNA: UUUGAUUAAUAUGAUAUCGUUCUUUCUUUUGUAUAUAAUUUCUUUCUCGAUAUCAUAUUAAUCUUU	4.47
Id_ii_S2_P3E.2_K3.1_C3.2_[C-2A]_[T-1A]_H3.1_A3.1_F3.1_T3.2_[T9G]_[A10C] (ssRNA) RNA: UUUGAUUAAUAUGAUAUCGUUCUUUCUAAUGUAUAUAGCUUCUUUCUCGAUAUCAUAUUAAUCUUU	10

Binder	Kd [nM]
Id_ii_S2_P3E.2_K3.1_C3.2_[C-2T]_H3.1_A3.1_F3.1_T3.2 (ssRNA) RNA: UUUGAUUAAUAUGAUAUCGUUCUUUCUUUUGUAUAUAUAUUCUUUCUCGAUAUCAUAUUAAUCUUU	1.24
Id_ii_S2_P3E.2_K3.1_C3.2_[C-2T]_H3.1_A3.1_F3.1_T3.2_[A10G] (ssRNA) RNA: UUUGAUUAAUAUGAUAUCGUUCUUUCUUUUGUAUAUAUGUUCUUUCUCGAUAUCAUAUUAAUCUUU	2.61
Id_ii_S2_P3E.2_K3.1_C3.2_[C-2A]_H3.1_A3.1_F3.1_T3.2_[T9C]_[A10C] (ssRNA) RNA: UUUGAUUAAUAUGAUAUCGUUCUUUCUAUUGUAUAUACCUUCUUUCUCGAUAUCAUAUUAAUCUUU	6.81
Id_ii_S2_P3E.2_K3.1_C3.2_[C-2T]_[T-1C]_H3.1_A3.1_F3.1_T3.2_[A10T] (ssRNA) RNA: UUUGAUUAAUAUGAUAUCGUUCUUUCUUCUGUAUAUAUUUUCUUUCUCGAUAUCAUAUUAAUCUUU	1.17
Id_ii_S2_P3E.2_K3.1_C3.2_[C-2A]_[T-1G]_H3.1_A3.1_F3.1_T3.2_[A10G] (ssRNA) RNA: UUUGAUUAAUAUGAUAUCGUUCUUUCUAGUGUAUAUAUGUUCUUUCUCGAUAUCAUAUUAAUCUUU	5.7
Id_ii_S2_P3E.2_K3.1_C3.2_[C-2A]_[T-1A]_H3.1_A3.1_F3.1_T3.2_[T9A]_[A10T] (ssRNA) RNA: UUUGAUUAAUAUGAUAUCGUUCUUUCUAAUGUAUAUAAUUUCUUUCUCGAUAUCAUAUUAAUCUUU	10.1
Id_ii_S2_P3E.2_K3.1_C3.2_[C-2T]_H3.1_A3.1_F3.1_T3.2_[A10T] (ssRNA) RNA: UUUGAUUAAUAUGAUAUCGUUCUUUCUUUUGUAUAUAUUUUCUUUCUCGAUAUCAUAUUAAUCUUU	1.56
Id_ii_S2_P3E.2_K3.1_C3.2_[C-2A]_[T-1A]_H3.1_A3.1_F3.1_T3.2_[A10T] (ssRNA) RNA: UUUGAUUAAUAUGAUAUCGUUCUUUCUAAUGUAUAUAUUUUCUUUCUCGAUAUCAUAUUAAUCUUU	6.37
Id_ii_S2_P3E.2_K3.1_C3.2_[C-2T]_H3.1_A3.1_F3.1_T3.2_[T9C]_[A10G] (ssRNA) RNA: UUUGAUUAAUAUGAUAUCGUUCUUUCUUUUGUAUAUACGUUCUUUCUCGAUAUCAUAUUAAUCUUU	3.7
Id_ii_S2_P3E.2_K3.1_C3.2_[C-2T]_[T-1A]_H3.1_A3.1_F3.1_T3.2_[T9C]_[A10T] (ssRNA) RNA: UUUGAUUAAUAUGAUAUCGUUCUUUCUUAUGUAUAUACUUUCUUUCUCGAUAUCAUAUUAAUCUUU	5.43
Id_ii_S2_P3E.2_K3.1_C3.2_[C-2T]_[T-1A]_H3.1_A3.1_F3.1_T3.2_[A10T] (ssRNA) RNA: UUUGAUUAAUAUGAUAUCGUUCUUUCUUAUGUAUAUAUUUUCUUUCUCGAUAUCAUAUUAAUCUUU	3.9
Id_ii_S2_P3E.2_K3.1_C3.2_[C-2T]_H3.1_A3.1_F3.1_T3.2_[T9C]_[A10T] (ssRNA) RNA: UUUGAUUAAUAUGAUAUCGUUCUUUCUUUUGUAUAUACUUUCUUUCUCGAUAUCAUAUUAAUCUUU	4.94
Id_ii_S2_P3E.2_K3.1_C3.2_[C-2T]_[T-1A]_H3.1_A3.1_F3.1_T3.2_[T9A] (ssRNA) RNA: UUUGAUUAAUAUGAUAUCGUUCUUUCUUAUGUAUAUAAAUUCUUUCUCGAUAUCAUAUUAAUCUUU	16.9
Id_ii_S2_P3E.2_K3.1_C3.2_[C-2T]_H3.1_A3.1_F3.1_T3.2_[T9A] (ssRNA) RNA: UUUGAUUAAUAUGAUAUCGUUCUUUCUUUUGUAUAUAAAUUCUUUCUCGAUAUCAUAUUAAUCUUU	6.87
Id_ii_S2_P3E.2_K3.1_C3.2_[C-2T]_[T-1C]_H3.1_A3.1_F3.1_T3.2_[T9C]_[A10G] (ssRNA) RNA: UUUGAUUAAUAUGAUAUCGUUCUUUCUUCUGUAUAUACGUUCUUUCUCGAUAUCAUAUUAAUCUUU	7.76
Id_ii_S2_P3E.2_K3.1_C3.2_[C-2T]_[T-1A]_H3.1_A3.1_F3.1_T3.2_[T9G]_[A10C] (ssRNA) RNA: UUUGAUUAAUAUGAUAUCGUUCUUUCUUAUGUAUAUAGCUUCUUUCUCGAUAUCAUAUUAAUCUUU	5.76
Id_ii_S2_P3E.2_K3.1_C3.2_[C-2T]_H3.1_A3.1_F3.1_T3.2_[A10C] (ssRNA) RNA: UUUGAUUAAUAUGAUAUCGUUCUUUCUUUUGUAUAUAUCUUCUUUCUCGAUAUCAUAUUAAUCUUU	1.55
Id_ii_S2_P3E.2_K3.1_C3.2_[C-2T]_[T-1A]_H3.1_A3.1_F3.1_T3.2_[T9A]_[A10T] (ssRNA) RNA: UUUGAUUAAUAUGAUAUCGUUCUUUCUUAUGUAUAUAAUUUCUUUCUCGAUAUCAUAUUAAUCUUU	14.1
Id_ii_S2_P3E.2_K3.1_C3.2_[C-2T]_H3.1_A3.1_F3.1_T3.2_[T9C]_[A10C] (ssRNA) RNA: UUUGAUUAAUAUGAUAUCGUUCUUUCUUUUGUAUAUACCUUCUUUCUCGAUAUCAUAUUAAUCUUU	2.82
Id_ii_S2_P3E.2_K3.1_C3.2_[C-2A]_[T-1C]_H3.1_A3.1_F3.1_T3.2_[T9G]_[A10C] (ssRNA) RNA: UUUGAUUAAUAUGAUAUCGUUCUUUCUACUGUAUAUAGCUUCUUUCUCGAUAUCAUAUUAAUCUUU	7.15
UCUCUUUGUAUUAUAAUCUCUU (ssRNA) [Ia_S1_P5E.1_K5.1_C5.1_H5.1_A5.1_F5.1_[T9A]_T5.1]	2.37
UCUCUUUUUAUUAGUAUCUCUU (ssRNA) [Ib_S1_P5E.1_K5.1_C5.1_H5.1_[G2T]_A5.1_F5.1_[T8G]_T5.1]	> 2300
UCUCUUCGUAUUAGUAUCUCUU (ssRNA) [Ib_S1_P5E.1_K5.1_C5.1_H5.1_[T1C]_A5.1_F5.1_[T8G]_T5.1]	> 2300
